Measurements as given in PMC5645763.

Key:
[1] = target: SdKefQCTD (KTN-containing carboxy-terminal domain construct of the Shewanella denitrificans Kef potassium efflux system) (Shewanella denitrificans); experiment: SEC; gel filtration (Figure S1); in solution, at the concentrations used (not given)
[2] = target: SdKefQCTD (KTN-containing carboxy-terminal domain construct of the Shewanella denitrificans Kef potassium efflux system) (Shewanella denitrificans); experiment: native MS; nanoelectrospray on a QToF-2, 200 mM ammonium acetate, 7.5 uM with respect to the dimer, positive polarity; collisional activation to remove AMP
[3] = target: SdKefQCTD (KTN-containing carboxy-terminal domain construct of the Shewanella denitrificans Kef potassium efflux system) (Shewanella denitrificans); experiment: SEC-MALS; size-exclusion chromatography-multiangle laser scattering (Figure S2); in solution, at the concentrations used (not given)
[4] = target: SdKefQCTD (KTN-containing carboxy-terminal domain construct of the Shewanella denitrificans Kef potassium efflux system) (Shewanella denitrificans); experiment: AUC; analytical ultracentrifugation (Figure S3); in solution, at the concentrations used (not given)

Measured: stoichiometry N

SdKefQCTD (KTN-containing carboxy-terminal domain construct of the Shewanella denitrificans Kef potassium efflux system) (domain or fragment)
2: all assays above
